From article PMC6716676, “Chemokine signaling links cell-cycle progression and cilia formation for left–right symmetry breaking” (PLoS Biology, 2019)
Changes are numbered by the printed parent chain. Names and notes keep the numbering of the source.

B1: Flag-zFoxj1a (zebrafish forkhead box j1a) (natural protein, UniProt F1QDF8 1-458, looked up)
chain: MLSMSSMDPWPEGSVGLEEEVVTAAAQAERLDTSTPLQCNTSLDSDNLDDSLTSLQWLQEFSILNASTGQHTSPSSHSHLMGSDAPSSPLAGDPASIGMPLTPGKPTAASFCRVPMFSALPSLVAHGHCPDEVDYKSNPHIKPPYSYATLICMAMQASKKTKITLSCIYKWITDNFCYFRHADPTWQNSIRHNLSLNKCFIKVPRQKDEPGKGGFWKIDPQYAERLLNGAYKKRRLPPVQINPALQHRLRMNAQATGVISRNLSVSPESQQLLKDFEEATSADQNWDPRLAEATMLSCWISGKGTNKRKQPYNHRTGKTPRRSSSPLLVMDEQEDLSSLRGNFDWDALLDSALNGELSLNEGSPLSPTPQDEELMIRGTHISPQEAPVENHVLMETQRSGDEDFDEETFLATAFLQSPWSEVDESNRSDFLGSSTVSIDQLFDLSFGGDLSSKIETLL
notes: forkhead box j1a (Foxj1a), zebrafish; In the self-association co-IP the second copy carried an HA tag instead of Flag (HA-zFoxj1a); also called Flag-tagged zFoxj1a; wild-type zFoxj1a; source: HEK293T, transfected, in lysate
B2: Flag-zFoxj1a-T102D (natural protein, zebrafish, UniProt F1QDF8 1-458, looked up)
chain: B1 chain with T102D
notes: forkhead box j1a (Foxj1a), zebrafish; In the self-association co-IP the second copy was differently tagged (HA); also called phospho-mimicking mutant of zFoxj1a; T102D mutant; source: HEK293T, transfected, in lysate

Columns and labels:
[1] = target: zFoxj1a (zebrafish Foxj1a) (UniProt F1QDF8); assay: co-IP of Flag- and HA-tagged zFoxj1a; settings: reference: wild type (both tagged copies); sites T102
[2] = target: the molecule itself; assay: native gel or EMSA; whole-cell lysates of HEK293T cells with overexpressed Flag-tagged zFoxj1a or its mutants separated on SDS- and native PAGEs

| Molecule | binding against the reference [1] | stoichiometry N [2] |
| --- | --- | --- |
| zFoxj1a (zebrafish Foxj1a) (from UniProt F1QDF8) T102A (both tagged copies) | weaker |  |
| B1 |  | 2 |
| B2 |  | 2 |
